Laboratory results published in patent publication US20160058880A1 (LIFE SCIENCES RESEARCH PARTNERS VZW, published 2016).
Numbered stars: 1 amine (or outer) side, 2 acyl side, 3 side chain; on linkers, the order of the positions; unused ones are H or OH. Square brackets hold non-standard residues; d marks the D form. * marks the point of attachment. Doxorubicin(3'-N) = COc1cccc2c1C(=O)c1c(O)c3c(c(O)c1C2=O)C[C@@](O)(C(=O)CO)C[C@@H]3O[C@H]1C[C@H](N*)[C@H](O)[C@H](C)O1; Phosphonoacetyl = O=C(CP(=O)(O)O)*; Suc = O=C(CCC(=O)[*:2])[*:1]; βAla = NCCC(=O)O

B1: PhAc-ALPF-doxorubicin (peptide)
peptide: Phosphonoacetyl-ALPF-{Doxorubicin(3'-N)}
SMILES: COc1cccc2c1C(=O)c1c(O)c3c(c(O)c1C2=O)C[C@@](O)(C(=O)CO)C[C@@H]3O[C@H]1C[C@H](NC(=O)[C@H](Cc2ccccc2)NC(=O)[C@@H]2CCCN2C(=O)[C@H](CC(C)C)NC(=O)[C@H](C)NC(=O)CP(=O)(O)O)[C@H](O)[C@H](C)O1
B2: PhAc-TSGP-doxorubicin (peptide)
peptide: Phosphonoacetyl-TSGP-{Doxorubicin(3'-N)}
SMILES: COc1cccc2c1C(=O)c1c(O)c3c(c(O)c1C2=O)C[C@@](O)(C(=O)CO)C[C@@H]3O[C@H]1C[C@H](NC(=O)[C@@H]2CCCN2C(=O)CNC(=O)[C@H](CO)NC(=O)[C@@H](NC(=O)CP(=O)(O)O)[C@@H](C)O)[C@H](O)[C@H](C)O1
B3: PhAc-AIGP-doxorubicin (peptide)
peptide: Phosphonoacetyl-AIGP-{Doxorubicin(3'-N)}
SMILES: CC[C@H](C)[C@H](NC(=O)[C@H](C)NC(=O)CP(=O)(O)O)C(=O)NCC(=O)N1CCC[C@H]1C(=O)N[C@H]1C[C@H](O[C@H]2C[C@](O)(C(=O)CO)Cc3c(O)c4c(c(O)c32)C(=O)c2c(OC)cccc2C4=O)O[C@@H](C)[C@H]1O
B4: PhAc-GPGP-doxorubicin (peptide)
peptide: Phosphonoacetyl-GPGP-{Doxorubicin(3'-N)}
SMILES: COc1cccc2c1C(=O)c1c(O)c3c(c(O)c1C2=O)C[C@@](O)(C(=O)CO)C[C@@H]3O[C@H]1C[C@H](NC(=O)[C@@H]2CCCN2C(=O)CNC(=O)[C@@H]2CCCN2C(=O)CNC(=O)CP(=O)(O)O)[C@H](O)[C@H](C)O1
B5: PhAc-KLGP-doxorubicin (peptide)
peptide: Phosphonoacetyl-KLGP-{Doxorubicin(3'-N)}
SMILES: COc1cccc2c1C(=O)c1c(O)c3c(c(O)c1C2=O)C[C@@](O)(C(=O)CO)C[C@@H]3O[C@H]1C[C@H](NC(=O)[C@@H]2CCCN2C(=O)CNC(=O)[C@H](CC(C)C)NC(=O)[C@H](CCCCN)NC(=O)CP(=O)(O)O)[C@H](O)[C@H](C)O1
B6: PhAc-DLGP-doxorubicin (peptide)
peptide: Phosphonoacetyl-DLGP-{Doxorubicin(3'-N)}
SMILES: COc1cccc2c1C(=O)c1c(O)c3c(c(O)c1C2=O)C[C@@](O)(C(=O)CO)C[C@@H]3O[C@H]1C[C@H](NC(=O)[C@@H]2CCCN2C(=O)CNC(=O)[C@H](CC(C)C)NC(=O)[C@H](CC(=O)O)NC(=O)CP(=O)(O)O)[C@H](O)[C@H](C)O1
B7: PhAc-ALGP-doxorubicin (peptide)
peptide: Phosphonoacetyl-ALGP-{Doxorubicin(3'-N)}
SMILES: COc1cccc2c1C(=O)c1c(O)c3c(c(O)c1C2=O)C[C@@](O)(C(=O)CO)C[C@@H]3O[C@H]1C[C@H](NC(=O)[C@@H]2CCCN2C(=O)CNC(=O)[C@H](CC(C)C)NC(=O)[C@H](C)NC(=O)CP(=O)(O)O)[C@H](O)[C@H](C)O1

Assays:
[1] = molecular target: CD10 (recombinant human neprilysin, R&D systems, Ref 1182-ZN) (human, UniProt P08473 53-750); assay: cell-based or functional assay
Sequence of CD10 (recombinant human neprilysin, R&D systems, Ref 1182-ZN) (P08473 53-750 limits assumed): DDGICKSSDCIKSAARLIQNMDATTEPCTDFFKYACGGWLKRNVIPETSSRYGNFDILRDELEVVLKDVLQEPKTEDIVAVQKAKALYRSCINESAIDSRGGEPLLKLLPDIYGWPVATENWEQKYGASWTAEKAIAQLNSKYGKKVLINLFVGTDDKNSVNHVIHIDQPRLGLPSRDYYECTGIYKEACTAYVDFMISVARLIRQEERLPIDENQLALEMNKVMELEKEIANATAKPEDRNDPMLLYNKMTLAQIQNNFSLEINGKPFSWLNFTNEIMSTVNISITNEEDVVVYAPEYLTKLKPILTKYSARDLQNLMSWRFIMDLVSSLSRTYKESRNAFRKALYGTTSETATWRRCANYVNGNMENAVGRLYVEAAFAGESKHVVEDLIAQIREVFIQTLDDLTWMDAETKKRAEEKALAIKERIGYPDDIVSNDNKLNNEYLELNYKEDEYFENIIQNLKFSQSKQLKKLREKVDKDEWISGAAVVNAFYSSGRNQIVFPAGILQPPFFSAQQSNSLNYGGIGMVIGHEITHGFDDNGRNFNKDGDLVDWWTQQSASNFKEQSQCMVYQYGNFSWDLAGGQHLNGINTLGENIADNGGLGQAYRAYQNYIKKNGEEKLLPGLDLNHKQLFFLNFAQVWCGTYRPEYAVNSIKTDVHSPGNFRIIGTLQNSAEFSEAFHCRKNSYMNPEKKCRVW

[2] = molecular target: TOP (recombinant human thimet oligopeptidase, R&D systems, Ref 3439-ZN) (human, UniProt P52888 1-689, limits assumed); assay: cell-based or functional assay
Sequence of TOP (recombinant human thimet oligopeptidase, R&D systems, Ref 3439-ZN) (P52888 whole entry): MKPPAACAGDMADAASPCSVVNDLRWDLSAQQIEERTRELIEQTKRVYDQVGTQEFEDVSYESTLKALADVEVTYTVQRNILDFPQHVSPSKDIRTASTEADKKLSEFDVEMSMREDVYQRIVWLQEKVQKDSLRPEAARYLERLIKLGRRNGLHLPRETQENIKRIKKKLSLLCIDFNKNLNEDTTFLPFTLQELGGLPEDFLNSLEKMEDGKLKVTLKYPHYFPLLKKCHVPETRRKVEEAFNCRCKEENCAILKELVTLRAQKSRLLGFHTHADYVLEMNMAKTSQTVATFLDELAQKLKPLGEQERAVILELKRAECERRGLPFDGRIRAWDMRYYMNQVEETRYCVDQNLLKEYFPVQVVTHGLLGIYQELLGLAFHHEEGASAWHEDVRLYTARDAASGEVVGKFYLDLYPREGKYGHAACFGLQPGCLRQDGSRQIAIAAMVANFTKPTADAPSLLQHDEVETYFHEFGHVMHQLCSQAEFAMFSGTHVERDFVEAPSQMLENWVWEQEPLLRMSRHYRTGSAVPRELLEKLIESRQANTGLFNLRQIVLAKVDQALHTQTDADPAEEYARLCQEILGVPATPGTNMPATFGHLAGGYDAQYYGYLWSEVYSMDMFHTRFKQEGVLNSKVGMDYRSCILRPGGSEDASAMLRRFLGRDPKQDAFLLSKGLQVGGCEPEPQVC

Binder | % Metabolites released after 3 h with CD10 10 nM [1] [%] | % Metabolites released after 3 h with TOP 5 nM (GP-Dox) [2] [%] | % Metabolites released after 3 h with TOP 5 nM [2] [%]
B1 | 0 | – | –
B2 | 0 | 38 | –
B3 | – | < 5 | –
B4 | 0 | – | 0
Suc-[βAla]LPF-doxorubicin [Succinyl-βALPF-doxorubicin] | – | – | 0
B5 | – | 31 | –
B6 | 0 | – | 0
B7 | – | 72 | –
